{
  "source": "patent US20180362668A1",
  "about": "(JIANGSU ALPHAMAB BIOPHARMACEUTICALS, published 2018)",
  "key": {"[1]": {"target": "the molecule itself", "experiment": "non-reducing SDS-PAGE of Protein A-purified co-transfection product; chain A:chain B vectors 1:4", "description": "(§1) The respective transient transfection products were obtained through Protein A affinity chromatography."}, "[2]": {"target": "the molecule itself", "experiment": "non-reducing SDS-PAGE densitometry of Protein A-purified co-transfection product; chain A:chain B vectors 1:1"}, "[3]": {"target": "the molecule itself", "experiment": "non-reducing SDS-PAGE densitometry of Protein A-purified co-transfection product; chain A:chain B vectors 1:1", "description": "The cotransfection ratio of recombinant expression vector of the chain A to that of the chain B was 1:1.", "remark": "listed apart in the source"}, "[4]": {"target": "the molecule itself", "experiment": "non-reducing SDS-PAGE densitometry of Protein A-purified co-transfection product; chain A:chain B vectors 1:1", "description": "(§2) The cotransfection ratio of recombinant expression vector of the chain A to that of the chain B was 4:1, 1:1 and 1:4. The transiently expressed culture supernatant was collected after 5-6 days of cultivation.", "remark": "listed apart in the source"}, "[5]": {"target": "the molecule itself", "experiment": "non-reducing SDS-PAGE of Protein A-purified co-transfection product; chain A:chain B vectors 4:1", "description": "as §1"}, "[6]": {"target": "the molecule itself", "experiment": "non-reducing SDS-PAGE densitometry of Protein A-purified co-transfection product; chain A:chain B vectors 4:1", "description": "as §2"}, "[7]": {"target": "the molecule itself", "experiment": "non-reducing SDS-PAGE densitometry of Protein A-purified co-transfection product; chain A:chain B vectors 1:4", "description": "as §2"}},
  "data": [
    {"protein": "ScFv-Fc fusion protein chain A with Y349C + T366W + F405K (Fc fusion, Positions are EU index; also called combination 2 chain A) EVQLLESGGGVVQPGRSLRLSCIASGFTFSSYPMTWVRQAPGKGLEWVASISYDGSYKYKADSMKGRLTISRDNSKNTLYLEMNSLTAEDTAVYYCARTAFFNAYDFWGQGTLVTVSSASTKGPSVGGGGSGGGGSEIVMTQSPATLSVSPGERATLSCRASQSVRSNLAWYQQKPGQAPRLLIYAASTRATGIPARFSGSGSGTEFTLTISSLQSEDFAVYYCQQYNEWFRTSGQGTKVEIKRDKTHTCPPCPAPELLGGPSVFLFPPKPKDTLMISRTPEVTCVVVDVSHENPEVKFNWYVDGVEVHNAKTKPREEQYNSTYRVVSVLTVLHQDWLNGKEYKCKVSNKALPAPIEKTISKAKGQPREPQVCTLPPSRDELTKNQVSLWCLVKGFYPSDIAVEWESNGQPENNYKTTPPVLDSDGSFKLYSKLTVDKSRWQQGNVFSCSVMHEALHNHYTQKSLSLSPGK", "values": [
      {"measurement": "ScFv-Fc homodimer (%)", "setting": "[1]", "result": "< 1", "unit": "%"},
      {"measurement": "ScFv-Fc homodimer (%)", "setting": "[2]", "result": 10, "unit": "%"},
      {"measurement": "ScFv-Fc homodimer (%)", "setting": "[3]", "result": 17, "unit": "%"},
      {"measurement": "ScFv-Fc homodimer (%)", "setting": "[4]", "result": 9, "unit": "%"},
      {"measurement": "ScFv-Fc homodimer (%)", "setting": "[5]", "result": 23, "unit": "%"},
      {"measurement": "ScFv-Fc homodimer (%)", "setting": "[6]", "result": 28, "unit": "%"},
      {"measurement": "ScFv-Fc homodimer (%)", "setting": "[7]", "result": "< 1", "unit": "%"}
    ]}
  ]
}
